Blank lines part the entries; values can stand above or below the molecule they belong to.
Experiments:
[1] = tested on: recombinant factor X wild type (rFX)
[2] = molecular target: purified plasma factor IX (Stago) (UniProt P00740)
[3] = molecular target: corresponding murine coagulation proteins; assay: cell-based or functional assay
[4] = molecular target: corresponding murine coagulation proteins

Sequence of UniProt P00740 (P00740 whole entry, looked up): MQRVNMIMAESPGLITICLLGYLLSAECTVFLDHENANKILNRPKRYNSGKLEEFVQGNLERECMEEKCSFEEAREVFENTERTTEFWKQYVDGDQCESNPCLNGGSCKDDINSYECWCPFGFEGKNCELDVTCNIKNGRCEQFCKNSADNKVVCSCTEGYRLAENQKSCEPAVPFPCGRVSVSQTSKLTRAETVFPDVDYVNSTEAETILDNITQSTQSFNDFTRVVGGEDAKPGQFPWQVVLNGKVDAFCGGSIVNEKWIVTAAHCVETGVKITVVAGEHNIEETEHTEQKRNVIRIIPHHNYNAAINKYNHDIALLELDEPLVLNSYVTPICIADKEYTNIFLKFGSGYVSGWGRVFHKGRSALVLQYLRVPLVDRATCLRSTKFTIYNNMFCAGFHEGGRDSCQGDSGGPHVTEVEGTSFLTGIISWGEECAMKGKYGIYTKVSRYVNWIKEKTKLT

Molecule: purified factor XIa
- cleavage, Western blot (negative control) [1]: compared to rFX in the absence of FXIa, no change for rFX is visible in the protein pattern after incubation with FXIa
- cleavage / conversion into activated forms, Western blot [2]: The conversion of FIX into the activated forms (FIXa and FIXb)
- cleavage / in vitro activation, Western blot (rFX/FXIa (Q-R/I) analog): after an incubation time of 1 h at 37 °C in the presence of CaCl2, the reaction batch of FXIa, with rFX/FXIa (Q-R/I) as a substrate, shows protein bands of approximately 36 kD and 32 kD which resemble the activated alpha and beta forms (aHCa and bHCa) of the heavy chain of FX

- Coagulation Time in sec. (aPTT, FIX-def. mouse plasma + rfX/fXIa(Q-R/I)) [3]: 48.6 s
- Coagulation Time in sec. (aPTT, FVIII-def. mouse plasma + rfX/fXIa(Q-R/I)) [3]: 52.5 s
B1: rFX/FXIa (Q-R/I) analog, P00742 41-179; P00742 183-488 (enzyme)
light: ANSFLEEMKKGHLERECMEETCSYEEAREVFEDSDKTNEFWNKYKDGDQCETSPCQNQGKCKDGLGEYTCTCLEGFEGKNCELFTRKLCSLDNGDCDQFCHEEQNSVVCSCARGYTLADNGKACIPTGPYPCGKQTLER
heavy: SVAQATSSSGEAPDSITWKPYDAADLDPTENPFDLLDFNQTQPEQSFNDFTRIVGGQECKDGECPWQALLINEENEGFCGGTILSEFYILTAAHCLYQAKRFKVRVGDRNTEQEEGGEAVHEVEVVIKHNRFTKETYDFDIAVLRLKTPITFRMNVAPACLPERDWAESTLMTQKTGIVSGFGRTHEKGRQSTRLKMLEVPYVDRNSCKLSSSFIITQNMFCAGYDTKQEDACQGDSGGPHVTRFKDTYFVTGIVSWGESCARKGKYGIYTKVTAFLKWIDRSMKTRGLPKAKSHAPEVITSSPLK

B2: rFX/FXIa (Q-R/I) analog (protein)
chain 1: ANSFLEEMKKGHLERECMEETCSYEEAREVFEDSDKTNEFWNKYKDGDQCETSPCQNQGKCKDGLGEYTCTCLEGFEGKNCELFTRKLCSLDNGDCDQFCHEEQNSVVCSCARGYTLADNGKACIPTGPYPCGKQTLER
chain 2: SVAQATSSSGEAPDSITWKPYDAADLDPTENPFDLLDFNQTQPEQSFNDFTRIVGGQECKDGECPWQALLINEENEGFCGGTILSEFYILTAAHCLYQAKRFKVRVGDRNTEQEEGGEAVHEVEVVIKHNRFTKETYDFDIAVLRLKTPITFRMNVAPACLPERDWAESTLMTQKTGIVSGFGRTHEKGRQSTRLKMLEVPYVDRNSCKLSSSFIITQNMFCAGYDTKQEDACQGDSGGPHVTRFKDTYFVTGIVSWGESCARKGKYGIYTKVTAFLKWIDRSMKTRGLPKAKSHAPEVITSSPLK
- % Activity in mouse plasma (aPTT, FIX-def. plasma + rfX/fXIa(Q-R/I)) [4]: 166%
- % Activity in mouse plasma (aPTT, FVIII-def. plasma + rfX/fXIa(Q-R/I)) [4]: 97%

Reference: US6958322
